Laboratory results reported in publication PMC4022879.

Assays:
[1] = molecular target: activated coagulation factor XII (FXIIa); test: chromogenic enzyme inhibition assay; 1 nM FXIIa, 500 μM S2302, 37 °C, 110 mM Tris-HCl pH 8.0, 250 mM NaCl, 1% BSA; residual activity in triplicate at at least six inhibitor concentrations; Ki from a linear fit of 1/v against inhibitor concentration
[2] = molecular target: bovine pancreatic trypsin (bovine); test: chromogenic enzyme inhibition assay; 1 nM trypsin, 500 μM S2765, 37 °C, 110 mM Tris-HCl pH 8.0, 250 mM NaCl, 1% BSA; residual activity in triplicate at at least six inhibitor concentrations; Ki from a linear fit of 1/v against inhibitor concentration
Sequence of bovine pancreatic trypsin (bovine) (P00760 24-246): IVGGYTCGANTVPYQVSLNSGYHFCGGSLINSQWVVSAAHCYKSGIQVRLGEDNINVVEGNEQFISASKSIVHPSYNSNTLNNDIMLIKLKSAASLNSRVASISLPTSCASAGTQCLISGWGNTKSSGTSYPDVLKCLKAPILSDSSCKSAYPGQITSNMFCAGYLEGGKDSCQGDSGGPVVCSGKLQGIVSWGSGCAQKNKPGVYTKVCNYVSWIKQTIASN

Ki [1] [nM]	Ki [2] [nM]	Binder
1	2.9	CHFI-2345 (domain or fragment) IPHNPLPSCRWYVTSRTCGIGPRLPWPELKRRCCRELADIPAYDRCTALSILMDGAIPPGPDAQLEGRLEDLPGCPREVQRGFAATLVTEAECNLATISGVAECPWILGGGTMPSK
1	2.1	corn Hageman factor inhibitor (CHFI), control protein from Zea mays seeds (natural protein) SAGTSCVPGWAIPHNPLPSCRWYVTSRTCGIGPRLPWPELKRRCCRELADIPAYCRCTALSILMDGAIPPGPDAQLEGRLEDLPGCPREVQRGFAATLVTEAECNLATIS
1.1	1.3	CHFI-12345, recombinant full-size CHFI without any truncations (natural protein) SAGTSCVPGWAIPHNPLPSCRWYVTSRTCGIGPRLPWPELKRRCCRELADIPAYCRCTALSILMDGAIPPGPDAQLEGRLEDLPGCPREVQRGFAATLVTEAECNLATIS
50	250	CHFI-1245, full-size CHFI with Cys29 substituted by Asp (natural protein) SAGTSCVPGWAIPHNPLPSCRWYVTSRTDGIGPRLPWPELKRRCCRELADIPAYCRCTALSILMDGAIPPGPDAQLEGRLEDLPGCPREVQRGFAATLVTEAECNLATIS
